# Laboratory results reported in article PMC5080453, “Structural characterization of twisted gastrulation provides insights into opposing functions on the BMP signalling pathway” (Matrix Biology, 2016).
# B1: human twisted gastrulation (Tsg), native (glycosylated) (natural protein, UniProt Q9GZX9 26-223, looked up)
# chain: CNKALCASDVSKCLIQELCQCRPGEGNCSCCKECMLCLGALWDECCDCVGMCNPRNYSDTPPTSKSTVEELHEPIPSLFRALTEGDTQLNWNIVSFPVAEELSHHENLVSFLETVNQPHHQNVSVPSNNVHAPYSSDKEHMCTVVYFDDCMSIHQCKISCESMGASKYRWFHNACCECIGPECIDYGSKTVKCMNCMF
# modifications: N-linked glycans (three predicted N-linked glycosylation sites)
# notes: twisted gastrulation (Tsg), human, generated by PCR from image clone Q9GZX9; a thrombin cleavage site stands before the C-terminal His6 tag; For MST it was labelled with NT647 (Red-NHS kit); Monomer by MALS, AUC and SAXS; also called native Tsg
# B2: chordin vWC2–3 (residues 701–860) (domain or fragment, human, UniProt Q9H2X0 701-860, looked up)
# chain: DPNTCFFEGQQRPHGARWAPNYDPLCSLCTCQRRTVICDPVVCPPPSCPHPVQAPDQCCPVCPEKQDVRDLPGLPRSRDPGEGCYFDGDRSWRAAGTRWHPVVPPFGLIKCAVCTCKGGTGEVHCEKVQCPRLACAQPVRVNPTDCCKQCPVGSGAHPQL
# notes: chordin, human, vWC2–3, residues 701–860, generated by PCR from full-length human chordin; thrombin cleavage site before the C-terminal His6 tag
# B3: chordin vWC1 (residues 50–128) (domain or fragment, human, UniProt Q9H2X0 50-128, looked up)
# chain: GCTFGGKVYALDETWHPDLGEPFGVMRCVLCACEAPQWGRRTRGPGRVSCKNIKPECPTPACGQPRQLPGHCCQTCPQE
# notes: chordin, human, vWC1, residues 50–128, generated by PCR from full-length human chordin; thrombin cleavage site before the C-terminal His6 tag
# Tests used:
# Conditions in all cases: both partners purified
# [1] = target: T1, ΔN-chordin (human chordin construct lacking the N-terminal part) (human, UniProt Q9H2X0 129-955); assay: SPR; ProteOn XPR36, GLC chip; Tsg immobilised by amine coupling (300 RU for ΔN-chordin and vWC2–3, 800 RU for vWC1-4CHRD and vWC1); chordin constructs injected at increasing concentrations; 25 °C, 10 mM HEPES, 150 mM NaCl, 3 mM EDTA, 0.05% Tween-20, pH 7.4, 50 μl/min; ΔN-chordin fitted to a 1:1 Langmuir model, vWC2–3 by equilibrium analysis; triplicate
# T1 construct: chordin, human, ΔN-chordin: partially cleaved chordin fragment lacking the N-terminus and containing the C-terminal vWC domains; source: HEK 293-EBNA cells, as previously described [13]
# T1 sequence (looked up): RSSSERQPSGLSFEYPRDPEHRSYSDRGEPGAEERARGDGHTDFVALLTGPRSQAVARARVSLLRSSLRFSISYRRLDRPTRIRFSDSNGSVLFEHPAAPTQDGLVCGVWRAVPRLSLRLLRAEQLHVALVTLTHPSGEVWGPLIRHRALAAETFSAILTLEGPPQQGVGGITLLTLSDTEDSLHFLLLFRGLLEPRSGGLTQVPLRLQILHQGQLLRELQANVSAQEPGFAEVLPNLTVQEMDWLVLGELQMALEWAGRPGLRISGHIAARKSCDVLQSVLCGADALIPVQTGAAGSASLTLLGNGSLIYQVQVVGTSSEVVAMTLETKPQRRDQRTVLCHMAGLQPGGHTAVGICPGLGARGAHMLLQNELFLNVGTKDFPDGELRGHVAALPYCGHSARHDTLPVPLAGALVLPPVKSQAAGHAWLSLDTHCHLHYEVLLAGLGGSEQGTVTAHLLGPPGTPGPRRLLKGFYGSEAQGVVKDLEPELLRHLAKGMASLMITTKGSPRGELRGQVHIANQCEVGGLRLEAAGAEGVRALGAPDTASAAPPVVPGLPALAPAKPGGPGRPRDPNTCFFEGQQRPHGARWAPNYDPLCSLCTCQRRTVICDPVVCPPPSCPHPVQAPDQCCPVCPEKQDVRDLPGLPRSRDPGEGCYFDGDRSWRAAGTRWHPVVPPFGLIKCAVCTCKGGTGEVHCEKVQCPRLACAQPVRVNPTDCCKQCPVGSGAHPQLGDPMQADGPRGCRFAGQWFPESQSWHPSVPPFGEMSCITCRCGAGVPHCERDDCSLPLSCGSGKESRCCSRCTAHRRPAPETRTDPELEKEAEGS
# [2] = target: B1; assay: as above
# [3] = target: B1; assay: MST; 15 nM NT647-labelled Tsg mixed with serial dilutions of vWC1 from 7 μM; 50 mM Tris, 150 mM NaCl, 10 mM MgCl2, 0.05% Tween-20, pH 7.4; Monolith NT.115Pico, 20% LED, 20% MST power; triplicate
binder,measurement,setting,value
B1,Kd,[1],3.08 nM
B2,Kd,[2],26.4 nM
B3,Kd,[3],322 nM
